We go through ten molecules from US20150266969A1.

For assay [1], the target named is E200 peptide. Briefly: Biacore, PEP2-Fc on E200. (SPR reads the build-up and loss of mass on a sensor chip optically.)
Assay [2] deals with PEP2-4 dAb. The assay can be described thus: immunohistochemistry on cervical cancer sections, 20 nM PEP2-4 with added free peptide; estimate between no inhibition at 10 uM and clear inhibition at 100 uM.
Chain of PEP2-4 dAb (chain, as listed by the source): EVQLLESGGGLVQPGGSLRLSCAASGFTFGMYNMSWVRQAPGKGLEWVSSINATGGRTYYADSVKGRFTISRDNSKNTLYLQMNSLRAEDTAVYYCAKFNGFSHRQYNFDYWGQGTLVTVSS

B1: PEP2-2-2 Fc (Fc fusion, not shown: a dimerising Fc or GST)
chain: EVQLLESGGGLVQPGGSLRLSCAASGFTFRNHDMGWVRQAPGKGLEWVSAISGSGGSTYYADSVKGRFTISRDNSKNTLYLQMNSLRAEDTAVYYCAEPKPMDTEFDYRSQGTLVTVSS
For orientation: Kd means the equilibrium constant for the complex coming apart. Turning to B1, in assay [1], the Kd was determined as 0.1 nM.

B2: PEP2-47 Fc (Fc fusion, not shown: a dimerising Fc or GST)
chain: EVQLLESGGGLVQPGGSLRLSCAASGFTFPMKDMGWVRQAPGKGLEWVSAISGSGGSTYYADSVKGRFTISRDNSKNTLYLQMNSLRAEDTAVYYCAEPSHFDRPFDYWGQGTLVTVSS
For B2, in assay [1], the dissociation constant (Kd) was determined as 7.5 nM.

B3: PEP2-247-2 Fc (Fc fusion, not shown: a dimerising Fc or GST)
chain: EVQLLESGGGLVQPGGSLRLSCAASGFTFRNHDMGWVRQAPGKGLEWVSAISGSGGSTYYANSVKGRFTISRDNSKNTLYLQMNSLRAEDTAVYYCAEPSHFDRPFDYRSQGTLVTVSS
Consider B3, for which the Kd in assay [1] was found to be 0.45 nM.

B4: PEP2-2-1-1 Fc (Fc fusion, not shown: a dimerising Fc or GST)
chain: EVQLLESGGGLVQPGGSLRLSCAASGFTFRNHDMGWVRQAPGKGLEWVSAISGSGGSTYYADSVKGRFTISRDNSKNTLYLQMNSLRAEDTAVYYCAEPKPMDTEFDYRSPGTLVTVSS
In the case of B4, the Kd in assay [1] was determined as 0.09 nM.

B5: PEP2-472-1 Fc (Fc fusion, not shown: a dimerising Fc or GST)
chain: EVQLLESGGGLVQPGGSLRLSCAASGYTFPMKDMGWVRQAPGKGLEWVSAISGSGGGTYYADSVKGRFTISRDNSKNTLYLQMNSLRAEDTAVYYCAEPKPMDTEFDYRSQGTLVTVSS
In turn, B5 had a Kd in assay [1] of 0.09 nM.

B6: PEP2-247-1 Fc (Fc fusion, not shown: a dimerising Fc or GST)
chain: EVQLLESGGGLVQPGGSLRLSCAASGFTFRNHDMGWVRQAPGKGLEWVSAISGSGGGTYYADSVKGRFTISRDNSKNTLYLQMNSLRAEDTAVYYCAEPSHFDRPFDYRSQGTLVTVSS
B6: the Kd in assay [1] amounted to 0.19 nM.

B7: PEP2-47-1 Fc (Fc fusion, not shown: a dimerising Fc or GST)
chain: EVQLLESGGGLVQPGGSLRLSCAASGYTFPMKDMGWVRQAPGKGLEWVSAISGSGGGTYYADSVKGRFTISRDNSKNTLYLQMNSLRAEDTAVYYCAEPSHFDRPFDYRSQGTLVTVSS
Regarding B7, in assay [1], the Kd came out at 0.11 nM.

B8: PEP2-42 Fc (Fc fusion, not shown: a dimerising Fc or GST)
chain: EVQLLESGGGLVQPGGSLRLSCAASGFTFDNVEMSWVRQAPGKGLEWVSSIGSKGEDTYYADSVKGRFTISRDNSKNTLYLQMNSLRAEDTAVYYCAQTVNVPEPAFAYWGQGTLVTVSS
As to B8, the dissociation constant (Kd) in assay [1] came out at 5.5 nM.

B9: PEP2-42-1 Fc (Fc fusion, not shown: a dimerising Fc or GST)
chain: EVQMLESGGGLVQPGGSLRLSCAASGFTFDNVEMSWVRQAPGKGLEWVSSIGTKGEYTYYADSVKGRFTISRDNSKNTLYLQMNSMRAEDTAVYYCAQTVNVPEPAFAYWGQGTLVTVLS
As to B9, the dissociation constant Kd in assay [1] stood at 0.12 nM.
Usually IC50 stands for the midpoint of a concentration-inhibition curve. Turning to GHNYTTRNILPGLNITC (modifications not checked) [E200 peptide], the IC50 in assay [2] was 40000 to 50000 nM.
